Measured values as given in patent publication US20250346665A1 (BEIJING IMMUNOAH PHARMATECH, published 2025).
Read-outs that look alike come from different tables or passages of the source.

What was measured:
[1] = molecular target: T1, Human CLDN18.2, NP_001002026.1, claudin-18 isoform 2 [Homo sapiens] (human); test: flow cytometry on 293T-18.2 cells
[2] = molecular target: T1, Human CLDN18.2, NP_001002026.1, …; test: cell-based or functional assay
[3] = molecular target: T1, Human CLDN18.2, NP_001002026.1, …; test: flow cytometry titration on 293T-18.2 cells
Procedure: (§1) 10 μL of each diluted antibody was added to 100 μL of the above cell samples, mixed and incubated at room temperature for 1 hour.
Each well was washed twice with 400 μl FACS buffer. The secondary antibody of the PE anti-human IgG Fc was added and incubated for 1 hour before detection by flow cytometry.

[4] = molecular target: T1, Human CLDN18.2, NP_001002026.1, …; test: flow cytometry titration on 293T-18.2 cells; remark: listed apart in the source
Procedure: Each well was washed twice with 400 μl FACS buffer. The secondary antibody of PE anti-mouse IgG Fc was added, and incubated for 1 hour before detection by flow cytometry.

[5] = molecular target: T1, Human CLDN18.2, NP_001002026.1, …; test: flow cytometry titration on 293T-18.2 cells; remark: listed apart in the source
Procedure: as §1
Each well was washed twice with 400 μl FACS buffer. The secondary antibody of the PE anti-human IgG Fc (Biolegend, Cat409304) was added and incubated for 1 hour before detection by flow cytometry.

T1 sequence (chain, as listed by the source limits assumed): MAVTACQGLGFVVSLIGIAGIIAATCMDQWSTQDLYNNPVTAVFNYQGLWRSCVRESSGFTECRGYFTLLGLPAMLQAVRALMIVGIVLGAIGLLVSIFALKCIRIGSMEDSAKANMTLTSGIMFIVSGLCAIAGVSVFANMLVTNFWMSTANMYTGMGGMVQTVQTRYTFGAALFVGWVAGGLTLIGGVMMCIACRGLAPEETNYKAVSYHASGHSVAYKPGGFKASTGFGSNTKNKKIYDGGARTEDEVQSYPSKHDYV

B1: 7D10-1 humanized antibody (antibody, V domains shown)
VH: QVQLVESGGGLVKPGGSLRLSCAASGFSFSSFGMHWVRQAPGKGLEWVAYISSGSRTIYYADTVKGRFTISRDNAKNSLYLQMNSLRAEDTAVYYCTRYYYGNSFDYWGQGTTVTVSS
VL: DIQMTQSPSSLSASVGDRVTITCKSSQSLFNTGNQKNYLTWYQQKPGKAPKLLIYWASTRESGVPSRFSGSGSGTDFTLTISSLQPEDFATYYCQNNYNFPLTFGQGTRLEIK
notes: Cloned into the same pQKX1/pQKX2 vectors as the chimeric antibody and detected with PE anti-human IgG Fc; a human IgG1 isotype control was used in the ADCC assay; also called anti-CLDN18.2 humanized antibody
EC50 strength as a multiple of control antibody MAb362 [1]: ~4 fold
EC50 of ADCC [2]: 180 nM
EC50 [3]: 0.909 µg/mL

B2: murine anti-CLDN18.2 monoclonal antibody secreted by the hybridoma 7D10-1 (antibody, V domains shown)
VH: QVQLKESGGNLVQPGGSRKLSCAASGFSFSSFGMHWVRQAPEKGLEWVAYISSGSRTIYYADTVKGRFTISRDNAKNTLFLQMTSLRSEDTAMYYCTRYYYGNSFDYWGQGTTLTVSS
VL: DIVMTQAPSSLTVTTGEKVTLACKSSQSLFNTGNQKNYLTWYQQKPGQPPKLLIYWASTRESGVPDRFTGSGSGTAFTLTISSVQAEDLAVYYCQNNYNFPLTFGAGTKLELK
notes: Murine hybridoma antibody detected with PE anti-mouse IgG Fc; also called murine anti-CLDN18.2 antibody
EC50 strength as a multiple of control antibody MAb362 [1]: ~3 fold
EC50 [4]: 0.385 µg/mL

B3: 7D10-1 chimeric antibody (antibody, human IgG1, kappa, L234A L235A, V domains shown)
VH: QVQLKESGGNLVQPGGSRKLSCAASGFSFSSFGMHWVRQAPEKGLEWVAYISSGSRTIYYADTVKGRFTISRDNAKNTLFLQMTSLRSEDTAMYYCTRYYYGNSFDYWGQGTTLTVSS
VL: DIVMTQAPSSLTVTTGEKVTLACKSSQSLFNTGNQKNYLTWYQQKPGQPPKLLIYWASTRESGVPDRFTGSGSGTAFTLTISSVQAEDLAVYYCQNNYNFPLTFGAGTKLELKR
notes: Murine variable regions with a human constant region; also called anti-CLDN18.2 chimeric antibody
EC50 strength as a multiple of control antibody MAb362 [1]: ~10 fold
EC50 [5]: 0.4 µg/mL
